Reference: patent US20100240872A1 (FORERUNNER PHARMA RESEARCH, published 2010)

Experiments:
[1] = target: T1, Muc17ct_mIgG2aFc (soluble human Muc17ct / mouse IgG2a Fc fusion protein) (human); test: ELISA screening of hybridoma supernatant on immobilized Muc17ct_mIgG2aFc
[2] = target: T2, GST_Muc17ct_del3 (4115Thr-4243Gly) (human, UniProt Q685J3 4115-4243); test: ELISA, GST fusion immobilized at 1 µg/mL
T2 construct: not shown: GST encoded by vector pGEX4T-3 (Takara Bio)

[3] = target: T3, GST_Muc17ct_del2 (4244Ser-4390Leu) (human, UniProt Q685J3 4244-4390); test: ELISA, GST fusion immobilized at 1 µg/mL
T3 construct: not shown: GST encoded by vector pGEX4T-3 (Takara Bio)

[4] = target: T1, Muc17ct_mIgG2aFc (soluble human Muc17ct …); test: ELISA, Muc17ct_mIgG2aFc coated at 1 µg/mL, anti-human kappa chain detection
Protocol: Muc17ct_mIgG2aFc protein was diluted with coating buffer (0.1 mol/L NaHCO₃ (pH 9.6), 0.02% (w/v) NaN₃) to give 1 μg/mL of Muc17ct_mIgG2aFc protein, and added to an immunoplate for overnight at 4° C. for coating. The plate was blocked with dilution buffer (50 mM Tris-HCl (pH 8.1), 1 mM MgCl₂, 150 mM NaCl, 0.05% (v/v) Tween20, 0.02% (w/v) NaN₃, 1% (w/v) BSA); then the anti-Muc17 antibody was added for 1 hour at room temperature. After washing with rinse buffer (0.05% (v/v) Tween20, PBS), an alkali phosphatase-labeled anti-human κ chain antibody (Sigma, CAT#A3813) was added for 1 hour at room temperature. After washing with rinse buffer, SIGMA104 (Sigma) diluted at 1 mg/mL in the substrate buffer (50 mM NaHCO₃ (pH 9.8), 10 mM MgCl₂) was added. After color development for 1 hour at room temperature, the absorbance (405 nm, reference 655 nm) was measured using a Benchmark Plus (BIO-RAD Laboratories, Inc.).

[5] = target: Mucin 17 (Muc17) on AsPc1 pancreatic cancer cells (human, UniProt Q685J3 26-4493); test: flow cytometry on AsPc1 cells, FITC anti-human IgG detection
Protocol: Binding of the antibodies to a pancreatic cancer cell line AsPc1 was evaluated by flow cytometry. The cells were suspended in FACS buffer (1% FBS/PBS) at 5×10⁵ cells/mL and dispensed into Multiscreen-HV Filter Plates (Millipore), and the supernatant was removed by centrifugation. Anti-Muc17 antibody diluted to a suitable concentration was added and reacted for 30 minutes on ice. The cells were washed once with FACS buffer. FITC-labeled anti-human IgG antibody was added, and reacted for 30 minutes on ice. Then the supernatant was removed by centrifugation, the cell were suspended in 100 μL FACS buffer and applied to flow cytometry. Flow cytometry was run on FACS Calibur (Becton, Dickinson and Company). The viable cell population was gated with a forward scatter and side scatter histogram.

T1 sequence (chain, as listed by the source limits assumed): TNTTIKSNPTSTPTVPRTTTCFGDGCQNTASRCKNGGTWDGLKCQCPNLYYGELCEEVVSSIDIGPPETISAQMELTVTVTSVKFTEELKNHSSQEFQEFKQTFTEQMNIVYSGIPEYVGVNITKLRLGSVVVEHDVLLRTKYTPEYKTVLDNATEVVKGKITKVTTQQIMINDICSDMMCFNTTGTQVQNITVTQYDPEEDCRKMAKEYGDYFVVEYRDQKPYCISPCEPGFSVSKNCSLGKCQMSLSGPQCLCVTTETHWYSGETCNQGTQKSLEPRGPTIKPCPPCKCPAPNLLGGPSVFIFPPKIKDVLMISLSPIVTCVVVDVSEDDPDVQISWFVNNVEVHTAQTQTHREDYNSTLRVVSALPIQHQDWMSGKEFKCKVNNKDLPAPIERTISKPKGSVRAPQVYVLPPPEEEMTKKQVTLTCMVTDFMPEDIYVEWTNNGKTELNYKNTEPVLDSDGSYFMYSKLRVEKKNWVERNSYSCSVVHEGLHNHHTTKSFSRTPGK

| binding result [1] | binding result [2] | binding result [3] | binding result [4] | binding result [5] | Binder |
| --- | --- | --- | --- | --- | --- |
| binds | no binding (tested: 3 µg/mL) | no binding (tested: 3 µg/mL) |  |  | MQ155 (antibody, IgG1, V domains shown, Mouse monoclonal from hybridoma, IgG1 kappa; also called anti-Muc17 antibody MQ155) VH: QVQLQQPGAELVRPGASVKLSCKASGYTFTTYWMNWVKQRPEQGLEWIGRIDPYDSETHYNQKFKDKAILTVDKSSSTAYMQLSSLTSEDSAVYYCARGPYYGTNPWFPYWGQGTLVTVSS VL: DVQITQSPSYLAASPGETITINCRASKSISKYLAWYQEKPGKTNKLLIYSGSTLQSGIPSRFSGSGSGTDFTLTISSLEPEDFAMYYCQQHHEYPYTFGGGTKLEIK |
|  |  |  | binds | binds | chi.MQ155 (anti-Muc17 mouse-human chimeric antibody MQ155) (antibody, human IgG1, kappa, V domains shown, Human IgG1 / kappa constant regions; also called chi.MQ155(DG); chi.MQ155(FTKO)) VH: QVQLQQPGAELVRPGASVKLSCKASGYTFTTYWMNWVKQRPEQGLEWIGRIDPYDSETHYNQKFKDKAILTVDKSSSTAYMQLSSLTSEDSAVYYCARGPYYGTNPWFPYWGQGTLVTVSS VL: DVQITQSPSYLAASPGETITINCRASKSISKYLAWYQEKPGKTNKLLIYSGSTLQSGIPSRFSGSGSGTDFTLTISSLEPEDFAMYYCQQHHEYPYTFGGGTKLEIKR |
